Laboratory results: patent US12077576 (TRUSTEES OF TUFTS COLLEGE, dated 2024)

B1: JZS-E6 (XAF-11) anti-TcdB VHH (VHH)
VHH: QVQLAETGGGLVQAGGSLRLSCAASGRLSERIFMISTMAWYRQVPGKQRELVAEISRLGRANYSDSVTDRFIISRDNTKNTVDLQMNSLKPEDTAVYYCNLKPFVDNYRGPGTQVTVSS
B2: JZS-B9 (XAF-5) anti-TcdB VHH (VHH)
VHH: QLQLVESGGGLVQPGGSLRLSCTSARFSLINYAIGWFRQAPGQKREGVSLLTSGGATYYADSARDRFTISRDNARNTVYLQMNSLKPEDTAVYSCAAGPYSRTLVSRWKVGDGMEYWGKGTLVTVSS
B3: JZT-G9 (XAG-7) anti-TcdB VHH (VHH)
VHH: QVQLAETGGGLVQAGGSLRLSCVSSERNPGINAMGWYRQAPGSQRELVAVWQTGGSLSYADSVKGRFTISRDNLKNTVYLQMNSLKPEDAAVYYCYLKKWRDQYWGQGTRVTVSS
B4: JZS-A2a (XAF-1) anti-TcdB VHH (VHH)
VHH: QVQLAESGGGLVQAGGSLRLSCAASGSVYTFMGWYRQAPGKTRELVAGISGGTITKYADSVKGRFIISRDSPKNTIYLQMNELKVEDTGVYYCNAGDTIAQAMGTRRFPFDRWGQGTQVTVAS
B5: JZS-C2 (XAF-6) anti-TcdB VHH (VHH)
VHH: QVQLAESGGGLVQPGGSLRLSCAASGFTSNSYYIGWFRQAPGKGREAVSSISSSGGSPNYANAVKGRFTITRDNANNTVYLQMDNLKPEDTAVYYCAASKFPLTTMASNRYHYWGQGTQVTVSS
B6: JZS-E4 (XAF-10) anti-TcdB VHH (VHH)
VHH: QVQLVESGGGLAQAGGSLRLSCAASGSSFSMNVMGWYRQPPGKQRELVATIRSDGITNYAESVKGRFTISRDNVKNTVHLEMNRLKAEDTAVYYCFHGRARTGNNADLGSWGQGTQVTVSS
notes: also called JZX-E4
B7: JZS-F6 (XAF-12) anti-TcdB VHH (VHH)
VHH: QLQLAESGGGLVQPGGSLRLSCAASGITFSNVAMSWVRQAPGKGLEWVSTISTGGSSTSYLDSVKSRFTISRDNAKKTVYLQMNSLKPEDTAVYYCVKGPKYSATIRRPEGQGTQVTVSS
B8: JZS-C10 (XAF-9) anti-TcdB VHH (VHH)
VHH: QLQLVETGGLVQAGGSLRLSCVGSGRGPGINVMGWYRQAPGTERELVATWQTGGTTNYADSVKGRFTISRDNLKNTVSLQMDSLKPEDTAVYYCYLKKWRDEYWGQGTQVTVSS
B9: JZT-F7 (XAG-1) anti-TcdB VHH (VHH)
VHH: QVQLVETGGGLVQAGGSLRLSCAASGSILSSMGWYRQAPGNQREFVASISRTGATDYADSVAGRFIISRDRGKNTVLALQMDSLKPEDTAVYYCNAGLGMGDPRRPGPWWGQGTQVTVSS
B10: JZS-H4 (XAF-13) anti-TcdB VHH (VHH)
VHH: QLQLVESGGGLVQPGGSLRLSCVASGFNFSVQIMSWVRQAPGKGLEWVSAISTGGASKSYADFAKGRFTISRDNAKNTLYLQMNSLQLEDTAVYFCSKGPRTWINSSPRGQGTQVTVSS
B11: JZS-H9 (XAF-14) anti-TcdB VHH (VHH)
VHH: QVQLVESGGGLVQPGGSLTINCTVSGTAFSLDTMTWYRQAPGKQRELAADISSSGASNYLASVKGRFTISRDNAKSALYLQMNSLKPEDTGTYYCYRGRVRGVWPLDSGMMYWGKGTLVTVSS
notes: also called JZX-H9
B12: JZS-B2 (XAF-4) anti-TcdB VHH (VHH)
VHH: QVQLAESGGGLVQAGGSLRLSCVGSGTSFPRNYMGWYRQAPGKQRELVAAISHDGNVEYADSVKGRFTISRGNFVNTVALQMNSLKSEDTAVYYCKLVTLRRDEYWGQGTQVTVSS

molecular target: T1, Clostridium difficile toxin B (TcdB) (Clostridium difficile, UniProt P18177 2-2366); experiment: cell-based or functional assay
T1 sequence (P18177 2-2366): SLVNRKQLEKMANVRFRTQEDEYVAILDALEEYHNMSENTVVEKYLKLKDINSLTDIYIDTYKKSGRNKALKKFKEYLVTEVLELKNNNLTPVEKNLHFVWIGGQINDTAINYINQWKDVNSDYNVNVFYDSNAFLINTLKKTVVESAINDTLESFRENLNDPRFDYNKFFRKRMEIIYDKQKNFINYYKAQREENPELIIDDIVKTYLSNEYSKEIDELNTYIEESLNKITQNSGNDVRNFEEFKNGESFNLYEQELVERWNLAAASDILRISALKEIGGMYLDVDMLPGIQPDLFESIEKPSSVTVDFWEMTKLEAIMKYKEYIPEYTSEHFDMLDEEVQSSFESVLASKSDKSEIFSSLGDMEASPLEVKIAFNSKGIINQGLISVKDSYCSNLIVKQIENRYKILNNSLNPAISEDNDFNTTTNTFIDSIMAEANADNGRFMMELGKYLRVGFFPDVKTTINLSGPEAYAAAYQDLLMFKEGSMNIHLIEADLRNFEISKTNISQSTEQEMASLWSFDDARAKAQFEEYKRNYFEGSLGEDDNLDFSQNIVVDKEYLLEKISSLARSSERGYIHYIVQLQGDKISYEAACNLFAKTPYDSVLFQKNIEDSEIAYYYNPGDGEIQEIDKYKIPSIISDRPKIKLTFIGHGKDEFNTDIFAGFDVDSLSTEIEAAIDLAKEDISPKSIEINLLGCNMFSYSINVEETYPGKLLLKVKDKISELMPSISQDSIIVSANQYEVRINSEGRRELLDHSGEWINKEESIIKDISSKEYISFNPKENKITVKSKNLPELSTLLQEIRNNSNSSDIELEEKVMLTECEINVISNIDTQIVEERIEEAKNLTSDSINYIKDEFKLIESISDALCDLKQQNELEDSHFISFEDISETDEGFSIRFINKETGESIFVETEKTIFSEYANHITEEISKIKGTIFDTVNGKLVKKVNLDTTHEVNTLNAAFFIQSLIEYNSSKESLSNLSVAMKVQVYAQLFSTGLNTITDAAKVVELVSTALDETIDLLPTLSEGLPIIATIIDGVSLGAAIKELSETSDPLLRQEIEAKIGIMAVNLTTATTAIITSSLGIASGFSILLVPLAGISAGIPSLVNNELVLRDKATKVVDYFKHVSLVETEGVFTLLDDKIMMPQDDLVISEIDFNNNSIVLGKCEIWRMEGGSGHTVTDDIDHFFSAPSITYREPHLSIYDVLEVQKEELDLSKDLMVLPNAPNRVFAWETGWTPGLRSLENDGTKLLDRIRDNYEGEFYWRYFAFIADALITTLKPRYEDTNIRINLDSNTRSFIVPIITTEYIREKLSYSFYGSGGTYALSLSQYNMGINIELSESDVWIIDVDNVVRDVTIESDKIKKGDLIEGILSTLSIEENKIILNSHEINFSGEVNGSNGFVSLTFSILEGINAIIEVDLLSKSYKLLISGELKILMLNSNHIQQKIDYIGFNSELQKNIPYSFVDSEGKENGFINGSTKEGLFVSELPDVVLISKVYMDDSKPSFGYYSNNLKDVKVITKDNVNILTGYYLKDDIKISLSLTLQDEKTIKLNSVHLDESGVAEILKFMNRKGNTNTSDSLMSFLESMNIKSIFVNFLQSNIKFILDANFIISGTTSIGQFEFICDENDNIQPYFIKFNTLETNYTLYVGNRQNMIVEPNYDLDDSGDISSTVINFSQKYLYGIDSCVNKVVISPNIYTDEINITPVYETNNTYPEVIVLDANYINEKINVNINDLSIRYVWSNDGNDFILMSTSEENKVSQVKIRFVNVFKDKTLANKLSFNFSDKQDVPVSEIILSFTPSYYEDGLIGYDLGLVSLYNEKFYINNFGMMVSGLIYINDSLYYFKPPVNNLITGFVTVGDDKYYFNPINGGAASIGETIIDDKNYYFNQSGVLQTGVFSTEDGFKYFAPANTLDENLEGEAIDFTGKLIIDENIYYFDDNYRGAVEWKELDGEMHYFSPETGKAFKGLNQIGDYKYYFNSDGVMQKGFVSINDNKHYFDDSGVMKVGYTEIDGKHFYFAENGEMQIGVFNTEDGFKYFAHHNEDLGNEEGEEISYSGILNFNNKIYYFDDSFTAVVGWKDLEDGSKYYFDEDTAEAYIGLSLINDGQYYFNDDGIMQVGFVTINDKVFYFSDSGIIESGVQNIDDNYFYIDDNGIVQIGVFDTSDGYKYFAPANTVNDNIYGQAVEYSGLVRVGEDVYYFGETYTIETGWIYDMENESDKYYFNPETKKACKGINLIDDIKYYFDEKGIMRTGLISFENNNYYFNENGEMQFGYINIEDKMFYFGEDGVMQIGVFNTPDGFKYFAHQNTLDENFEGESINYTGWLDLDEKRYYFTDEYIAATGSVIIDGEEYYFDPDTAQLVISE

Binder	Apparent potency, (IC50); TcdB neutralization, Vero cell rounding assay [nM]
B1	1
B2	1
B3	3
B4	> 25
B5	0.5
B6	1
B7	0.5
B8	0.5
B9	1
B10	0.5
B11	15
B12	> 125

molecular target: T1, Clostridium difficile toxin B (TcdB); experiment: ELISA, VHH dilution series on plate-coated rTcdB, anti-E-tag-HRP detection

Binder	EC50 [nM]
B1	0.8
B2	0.2
B3	0.1
B4	> 25
B5	3
B6	2
B7	0.1
B8	0.1
B9	3
B10	0.2
B11	1
B12	0.3

molecular target: T1, Clostridium difficile toxin B (TcdB); experiment: cell-based or functional assay; remark: another data set of the same source

Binder	IC50 TcdB-neutralization potency (FIG. 1), Vero cell rounding assay [nM]
B6	~0.5
